Results on six substances are retold here after publication PMC10315472.

The target in one assay is AMSIN (actinomyces). Nature of the assay: SPR. For orientation: SPR reads the build-up and loss of mass on a sensor chip optically.
Assay [1] concerns the target emorisin (Emergomyces orientalis). Nature of the assay: SPR.

A word on the Kd: it is the concentration at which binding is half-saturated. A low value points to higher affinity. Turning to “Spike protein of the SARS-CoV-2 Omicron variant (from UniProt P0DTC2) (natural protein)”, in the assay with AMSIN (actinomyces), the dissociation constant Kd came to 57.9 nM.

Consider “αRBD (from UniProt P0DTC2) (domain or fragment)”, for which the dissociation constant Kd in the assay with AMSIN (actinomyces) was determined as 37.4 nM.

The koff is a measure of how fast the partners let go of each other. A higher koff goes with a short-lived complex. As a reminder, the kon is the rate constant with which the complex forms. A low value points to slower complex formation. On to “βRBD (from UniProt P0DTC2 319-541) (domain or fragment)”, for which, in assay [1], the Kd amounted to 49.5 nM, the off-rate (koff) was found to be 0.00561 s⁻¹ and the on-rate (kon) came to 11400 M⁻¹ s⁻¹. Further, in the assay with AMSIN (actinomyces), the Kd is 310 nM, the off-rate constant (koff) amounted to 0.00536 s⁻¹ and the kon stood at 17300 M⁻¹ s⁻¹.

On to “γRBD (from UniProt P0DTC2 319-541) (domain or fragment)”, for which, in the assay with AMSIN (actinomyces), the Kd was 607 nM, the koff was found to be 0.00545 s⁻¹ and the kon worked out at 8970 M⁻¹ s⁻¹.

In assay [1], “δRBD (from UniProt P0DTC2 319-541) (domain or fragment)” came in with a Kd of 31.6 nM, an off-rate (koff) of 0.00202 s⁻¹ and an on-rate constant (kon) of 64000 M⁻¹ s⁻¹. In the assay with AMSIN (actinomyces), this substance gave a Kd of 76.6 nM, a dissociation rate constant (koff) of 0.0038 s⁻¹ and a kon of 49600 M⁻¹ s⁻¹.

Consider “ζRBD (from UniProt P0DTC2) (domain or fragment)”, for which the dissociation constant Kd with AMSIN (actinomyces) turned out to be 1450 nM.
